Read-outs that look alike come from different tables or passages of the source.

As for “Hrq1: Hrq1-7KR (K164R, K219R, K221R, K366R, K839R, K872R, K938R)”, the degradation_or_half_life entry (ubiquitination at K164) was “decreases”; the degradation_or_half_life entry (ubiquitination at K219) was “decreases”; the degradation_or_half_life entry (ubiquitination at K221) is listed as “decreases”; the degradation_or_half_life result (ubiquitination at K366) was “decreases”; the degradation_or_half_life result (ubiquitination at K839) is recorded as “decreases”; the degradation_or_half_life entry (ubiquitination at K872) is on record as “decreases”. Moreover, the degradation_or_half_life entry (ubiquitination at K938) was “decreases”. Further, the expression_or_secretion result reads like this: (ubiquitination at K164) “no change”; (ubiquitination at K219) “no change”; (ubiquitination at K221) “no change”; (ubiquitination at K366) “no change”; (ubiquitination at K839) “no change”; (ubiquitination at K872) “no change”. Further, the expression_or_secretion entry (ubiquitination at K938) is “no change”.

The record behind these values is paper PMC9488787.
